According to publication PMC13147308, “Investigating the molecular mechanisms underlying the anti‐CRISPR function of AcrIIA13b protein” (The Febs Journal, 2025):

Biological target: T1, Staphylococcus haemolyticus AcrIIA13b, wild type, with C-terminal 6xHis tag (Staphylococcus haemolyticus)
T1 construct: Monomer and dimer peaks coexist in SEC; also called shAcrIIA13b; wild-type AcrIIA13b; source: E. coli BL21 (DE3), purified (Ni-NTA, SEC)
Experiment: ITC; PBS pH 7.4, 20 °C; AcrIIA13b (500 μM) injected into the target protein (50 μM) in the cell, 25 injections; single-site model
Details: both partners purified

B1: SauCas9 WED-PI domain construct, His-tagged (domain or fragment)
chain: LYSTRKDDKGNTLIVNNLNGLYDKDNDKLKKLINKSPEKLLMYHHDPQTYQKLKLIMEQYGDEKNPLYKYYEETGNYLTKYSKKDNGPVIKKIKYYGNKLNAHLDITDDYPNSRNKVVKLSLKPYRFDVYLDNGVYKFVTVKNLDVIKKENYYEVNSKCYEEAKKLKKISNQAEFIASFYNNDLIKINGELYRVIGVNNDLLNRIEVNMIDITYREYLENMNDKRPPRIIKTIASKTQSIKKYSTDILGNLYEVKSKKHPQIIKKG
- Kd: 120 nM

B2: SauCas9 WED (wedge-like) domain, His-tagged (domain or fragment)
chain: LYSTRKDDKGNTLIVNNLNGLYDKDNDKLKKLINKSPEKLLMYHHDPQTYQKLKLIMEQYGDEKNPLYKYYEETGNYLTKYSKKDNGPVIKKIKYYGNKLNAHLDITDDYPNSRNKVVKLSL
- Kd: 3210 nM
